Data taken from article PMC11574045, “A cofactor-induced repressive type of transcription factor condensation can be induced by synthetic peptides to suppress tumorigenesis” (The EMBO Journal, 2024).

Test system: HEK293FT cells transfected with TF library
Assay: Screening of TF condensates based on fluorescent puncta
Format: cell-based
Details: Figure 1B numerical data; TF library screen, one value per transcriptional factor
Summary of the method: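 HEK293FT cells were reverse-transfected with Flag- or GAL4-tagged TF plasmids (1.6 μg/ml, PEI). After 60 h, cells were cultured 12 h with or without glucose, then fixed and immunostained with anti-Flag or anti-GAL4 and Alexa 488 secondaries. Fluorescent puncta were imaged over fifty random fields per well by high-content imaging.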

Row | Molecule | Z score of condensed fraction
1 | PRDM8 (protein, UniProt Q9NQV8 1-689, looked up) PR domain zinc finger protein …: MEDTGIQRGIWDGDAKAVQQCLTDIFTSVYTTCDIPENAIFGPCVLSHTSLYDSIAFIALKSTDKRTVPYIFRVDTSAANGSSEGLMWLRLVQSARDKEEQNLEAYIKNGQLFYRSLRRIAKDEELLVWYGKELTELLLLCPSRSHNKMNGSSPYTCLECSQRFQFEFPYVAHLRFRCPKRLHSADISPQDEQGGGVGTKDHGGGGGGGKDQQQQQQEAPLGPGPKFCKAGPLHHYPSPSPESSNPSAAAGGSSAKPSTDFHNLARELENSRGGSSCSPAQSLSSGSGSGGGGGHQEAELSPDGIATGGGKGKRKFPEEAAEGGGGAGLVGGRGRFVERPLPASKEDLVCTPQQYRASGSYFGLEENGRLFAPPSPETGEAKRSAFVEVKKAARAASLQEEGTADGAGVASEDQDAGGGGGSSTPAAASPVGAEKLLAPRPGGPLPSRLEGGSPARGSAFTSVPQLGSAGSTSGGGGTGAGAAGGAGGGQGAASDERKSAFSQPARSFSQLSPLVLGQKLGALEPCHPADGVGPTRLYPAAADPLAVKLQGAADLNGGCGSLPSGGGGLPKQSPFLYATAFWPKSSAAAAAAAAAAAAGPLQLQLPSALTLLPPSFTSLCLPAQNWCAKCNASFRMTSDLVYHMRSHHKKEYAMEPLVKRRREEKLKCPICNESFRERHHLSRHMTSHN | -0.8362
2 | RARB (protein, UniProt P10826 1-455, looked up) Retinoic acid receptor beta: MTTSGHACPVPAVNGHMTHYPATPYPLLFPPVIGGLSLPPLHGLHGHPPPSGCSTPSPATIETQSTSSEELVPSPPSPLPPPRVYKPCFVCQDKSSGYHYGVSACEGCKGFFRRSIQKNMIYTCHRDKNCVINKVTRNRCQYCRLQKCFEVGMSKESVRNDRNKKKKETSKQECTESYEMTAELDDLTEKIRKAHQETFPSLCQLGKYTTNSSADHRVRLDLGLWDKFSELATKCIIKIVEFAKRLPGFTGLTIADQITLLKAACLDILILRICTRYTPEQDTMTFSDGLTLNRTQMHNAGFGPLTDLVFTFANQLLPLEMDDTETGLLSAICLICGDRQDLEEPTKVDKLQEPLLEALKIYIRKRRPSKPHMFPKILMKITDLRSISAKGAERVITLKMEIPGSMPPLIQEMLENSEGHEPLTPSSSGNTAEHSPSISPSSVENSGVSQSPLVQ | -0.7014
3 | BARHL2 (protein, UniProt Q9NY43 1-387, looked up) BarH-like 2 homeobox protein: MTMEGASGSSFGIDTILSSASSGSPGMMNGDFRPLGEARTADFRSQATPSPCSEIDTVGTAPSSPISVTMEPPEPHLVADATQHHHHLHHSQQPPPPAAAPTQSLQPLPQQQQPLPPQQPPPPPPQQLGSAASAPRTSTSSFLIKDILGDSKPLAACAPYSTSVSSPHHTPKQESNAVHESFRPKLEQEDSKTKLDKREDSQSDIKCHGTKEEGDREITSSRESPPVRAKKPRKARTAFSDHQLNQLERSFERQKYLSVQDRMDLAAALNLTDTQVKTWYQNRRTKWKRQTAVGLELLAEAGNYSALQRMFPSPYFYHPSLLGSMDSTTAAAAAAAMYSSMYRTPPAPHPQLQRPLVPRVLIHGLGPGGQPALNPLSSPIPGTPHPR | 1.061
4 | REXO4 (protein, UniProt Q9GZR2 1-422, looked up) RNA exonuclease 4: MGKAKVPASKRAPSSPVAKPGPVKTLTRKKNKKKKRFWKSKAREVSKKPASGPGAVVRPPKAPEDFSQNWKALQEWLLKQKSQAPEKPLVISQMGSKKKPKIIQQNKKETSPQVKGEEMPAGKDQEASRGSVPSGSKMDRRAPVPRTKASGTEHNKKGTKERTNGDIVPERGDIEHKKRKAKEAAPAPPTEEDIWFDDVDPADIEAAIGPEAAKIARKQLGQSEGSVSLSLVKEQAFGGLTRALALDCEMVGVGPKGEESMAARVSIVNQYGKCVYDKYVKPTEPVTDYRTAVSGIRPENLKQGEELEVVQKEVAEMLKGRILVGHALHNDLKVLFLDHPKKKIRDTQKYKPFKSQVKSGRPSLRLLSEKILGLQVQQAEHCSIQDAQAAMRLYVMVKKEWESMARDRRPLLTAPDHCSDDA | -0.3654
5 | RBBP8 (protein, UniProt Q99708 1-897, looked up) DNA endonuclease RBBP8: MNISGSSCGSPNSADTSSDFKDLWTKLKECHDREVQGLQVKVTKLKQERILDAQRLEEFFTKNQQLREQQKVLHETIKVLEDRLRAGLCDRCAVTEEHMRKKQQEFENIRQQNLKLITELMNERNTLQEENKKLSEQLQQKIENDQQHQAAELECEEDVIPDSPITAFSFSGVNRLRRKENPHVRYIEQTHTKLEHSVCANEMRKVSKSSTHPQHNPNENEILVADTYDQSQSPMAKAHGTSSYTPDKSSFNLATVVAETLGLGVQEESETQGPMSPLGDELYHCLEGNHKKQPFEESTRNTEDSLRFSDSTSKTPPQEELPTRVSSPVFGATSSIKSGLDLNTSLSPSLLQPGKKKHLKTLPFSNTCISRLEKTRSKSEDSALFTHHSLGSEVNKIIIQSSNKQILINKNISESLGEQNRTEYGKDSNTDKHLEPLKSLGGRTSKRKKTEEESEHEVSCPQASFDKENAFPFPMDNQFSMNGDCVMDKPLDLSDRFSAIQRQEKSQGSETSKNKFRQVTLYEALKTIPKGFSSSRKASDGNCTLPKDSPGEPCSQECIILQPLNKCSPDNKPSLQIKEENAVFKIPLRPRESLETENVLDDIKSAGSHEPIKIQTRSDHGGCELASVLQLNPCRTGKIKSLQNNQDVSFENIQWSIDPGADLSQYKMDVTVIDTKDGSQSKLGGETVDMDCTLVSETVLLKMKKQEQKGEKSSNEERKMNDSLEDMFDRTTHEEYESCLADSFSQAADEEEELSTATKKLHTHGDKQDKVKQKAFVEPYFKGDERETSLQNFPHIEVVRKKEERRKLLGHTCKECEIYYADMPAEEREKKLASCSRHRFRYIPPNTPENFWEVGFPSTQTCMERGYIKEDLDPCPRPKRRQPYNAIFSPKGKEQKT | 0.03488
6 | PROX1 (protein, UniProt P48437 1-737, looked up) Prospero homeobox protein 1: MPDHDSTALLSRQTKRRRVDIGVKRTVGTASAFFAKARATFFSAMNPQGSEQDVEYSVVQHADGEKSNVLRKLLKRANSYEDAMMPFPGATIISQLLKNNMNKNGGTEPSFQASGLSSTGSEVHQEDICSNSSRDSPPECLSPFGRPTMSQFDVDRLCDEHLRAKRARVENIIRGMSHSPSVALRGNENEREMAPQSVSPRESYRENKRKQKLPQQQQQSFQQLVSARKEQKREERRQLKQQLEDMQKQLRQLQEKFYQVYDSTDSENDEDGDLSEDSMRSEILDARAQDSVGRSDNEMCELDPGQFIDRARALIREQEMAENKPKREGSNKERDHGPNSLQPEGKHLAETLKQELNTAMSQVVDTVVKVFSAKPSRQVPQVFPPLQIPQARFAVNGENHNFHTANQRLQCFGDVIIPNPLDTFGSVQMPSSTDQTEALPLVVRKNSSEQSASGPATGGHHQPLHQSPLSATAGFTTPSFRHPFPLPLMAYPFQSPLGAPSGSFSGKDRASPESLDLTRDTTSLRTKMSSHHLSHHPCSPAHPPSTAEGLSLSLIKSECGDLQDMSDISPYSGSAMQEGLSPNHLKKAKLMFFYTRYPSSNMLKTYFSDVKFNRCITSQLIKWFSNFREFYYIQMEKYARQAINDGVTSTEELSITRDCELYRALNMHYNKANDFEVPERFLEVAQITLREFFNAIIAGKDVDPSWKKAIYKVICKLDSEVPEIFKSPNCLQELLHE | 0.7937
7 | PRMT2 (protein, UniProt P55345 1-433, looked up) Protein arginine …: MATSGDCPRSESQGEEPAECSEAGLLQEGVQPEEFVAIADYAATDETQLSFLRGEKILILRQTTADWWWGERAGCCGYIPANHVGKHVDEYDPEDTWQDEEYFGSYGTLKLHLEMLADQPRTTKYHSVILQNKESLTDKVILDVGCGTGIISLFCAHYARPRAVYAVEASEMAQHTGQLVLQNGFADIITVYQQKVEDVVLPEKVDVLVSEWMGTCLLFEFMIESILYARDAWLKEDGVIWPTMAALHLVPCSADKDYRSKVLFWDNAYEFNLSALKSLAVKEFFSKPKYNHILKPEDCLSEPCTILQLDMRTVQISDLETLRGELRFDIRKAGTLHGFTAWFSVHFQSLQEGQPPQVLSTGPFHPTTHWKQTLFMMDDPVPVHTGDVVTGSVVLQRNPVWRRHMSVALSWAVTSRQDPTSQKVGEKVFPIWR | 0.936
8 | PRKRA (protein, UniProt O75569 1-313, looked up) Interferon-inducible …: MSQSRHRAEAPPLEREDSGTFSLGKMITAKPGKTPIQVLHEYGMKTKNIPVYECERSDVQIHVPTFTFRVTVGDITCTGEGTSKKLAKHRAAEAAINILKANASICFAVPDPLMPDPSKQPKNQLNPIGSLQELAIHHGWRLPEYTLSQEGGPAHKREYTTICRLESFMETGKGASKKQAKRNAAEKFLAKFSNISPENHISLTNVVGHSLGCTWHSLRNSPGEKINLLKRSLLSIPNTDYIQLLSEIAKEQGFNITYLDIDELSANGQYQCLAELSTSPITVCHGSGISCGNAQSDAAHNALQYLKIIAERK | 0.8928
9 | RBM14 (protein, UniProt Q96PK6 1-669, looked up) RNA-binding protein 14: MKIFVGNVDGADTTPEELAALFAPYGTVMSCAVMKQFAFVHMRENAGALRAIEALHGHELRPGRALVVEMSRPRPLNTWKIFVGNVSAACTSQELRSLFERRGRVIECDVVKDYAFVHMEKEADAKAAIAQLNGKEVKGKRINVELSTKGQKKGPGLAVQSGDKTKKPGAGDTAFPGTGGFSATFDYQQAFGNSTGGFDGQARQPTPPFFGRDRSPLRRSPPRASYVAPLTAQPATYRAQPSVSLGAAYRAQPSASLGVGYRTQPMTAQAASYRAQPSVSLGAPYRGQLASPSSQSAAASSLGPYGGAQPSASALSSYGGQAAAASSLNSYGAQGSSLASYGNQPSSYGAQAASSYGVRAAASSYNTQGAASSLGSYGAQAASYGAQSAASSLAYGAQAASYNAQPSASYNAQSAPYAAQQAASYSSQPAAYVAQPATAAAYASQPAAYAAQATTPMAGSYGAQPVVQTQLNSYGAQASMGLSGSYGAQSAAAATGSYGAAAAYGAQPSATLAAPYRTQSSASLAASYAAQQHPQAAASYRGQPGNAYDGAGQPSAAYLSMSQGAVANANSTPPPYERTRLSPPRASYDDPYKKAVAMSKRYGSDRRLAELSDYRRLSESQLSFRRSPTKSSLDYRRLPDAHSDYARYSGSYNDYLRAAQMHSGYQRRM | 0.5955
